# Results taken from article PMC9133651, “Elucidation of physico-chemical principles of high-density lipoprotein–small RNA binding interactions”.
# B1: tDR-GluCTC-30 (ssRNA)
# RNA: CCUGGUGGUCUAGUGGUUAGGAUUCGGCGC
# B2: miR-223-3p (ssRNA)
# RNA: UGUCAGUUUGUCAAAUACCCCA
# B3: miR-375-3p (ssRNA)
# RNA: UUUGUUCGUUCGGCUCGCGUGA
# Target: apolipoprotein A-I (lipid-free) (Homo sapiens, UniProt P02647 25-267)
# Test: MST; Kd only in figure; MST: 100 nM AF647 oligo (90 C 2 min, cooled) mixed 1:1 with ligand in PBS, RT, 5 min; EMSA: 1 uM AF546 oligo, UV 254 nm 15 min on ice, 4-16% NativePAGE, 0.5x TBE
# Details: protein: native; label: 3' Alexa Fluor 647
# Chain of apolipoprotein A-I (lipid-free) (P02647 25-267): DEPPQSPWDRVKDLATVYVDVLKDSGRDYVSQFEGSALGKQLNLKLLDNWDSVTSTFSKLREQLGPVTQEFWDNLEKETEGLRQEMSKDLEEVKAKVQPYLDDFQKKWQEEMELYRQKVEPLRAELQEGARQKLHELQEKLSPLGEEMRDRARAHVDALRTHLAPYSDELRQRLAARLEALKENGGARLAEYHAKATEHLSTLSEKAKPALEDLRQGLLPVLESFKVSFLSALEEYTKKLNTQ
row,Binder,binding result
1,B1,binds
2,B2,binds
3,B3,binds
